Our source for the protein stability index values is the supplement of paper PMC10567573.

B1: DLC1 (parent)
chain: AIQGISEKEKAEIEAKEACDWLRA
B2: NET1 (parent)
chain: RVRPLARVTSLANLISPVRNGAVR
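Note: lentivirally expressed fusions sorted by FACS into six bins by GFP to DsRed ratio, PSI derived from sequencing read proportions per bin multiplied by bin number.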

One series covers variants of B1. Put plainly: protein stability index of a GFP-peptide fusion (GPS, HEK-293T) (PSI 1-6); higher = more stable. Conditions: c terminus: a fixed tail appended.
Consider AIQGISEKEKAEIEAKEACDWPRA [L22P], for which the protein stability index was 5.2.
Still for that read-out and setting: the same measure for AIQGISEKEKAEIEAKEACDWSRA [L22S]: 5.09.
Take AIQGISEKEKAEIEAKEACDWERA [L22E]: the protein stability index was found to be 5.62.
Still for that read-out and setting: the value for AIQGISEKEKAEIEAKEACDWRRA [L22R] was 4.5.
Still for that read-out and setting: the same measure for AIQGISEKEKAEIEAKEACDWLTA [R23T]: 5.14.
Still for that read-out and setting: the value for AIQGISEKEKAEIEAKEACDWLLA [R23L] was 3.87; that for AIQGISEKEKAEIEAKEACDWLAA [R23A] was 4.67.
Take AIQGISEKEKAEIEAKEACDWLWA [R23W]: the protein stability index was 4.91.
The same measure, in the same setting: the same measure for AIQGISEKEKAEIEAKEACDWLPA [R23P]: 4.7.
Turning to AIQGISEKEKAEIEAKEACDWLFA [R23F], the protein stability index was 4.33.
Still for that read-out and setting: the same measure for AIQGISEKEKAEIEAKEACDWLGA [R23G]: 4.42.
The same measure, in the same setting: the same measure for AIQGISEKEKAEIEAKEACDWLSA [R23S]: 4.95.
Same read-out and setting: the same measure for AIQGISEKEKAEIEAKEACDWLKA [R23K]: 4.62; for AIQGISEKEKAEIEAKEACDWLHA [R23H]: 4.75.
On to AIQGISEKEKAEIEAKEACDWLVA [R23V], for which the protein stability index was determined as 4.31.
On the same count and under the same terms, the same measure for AIQGISEKEKAEIEAKEACDWLDA [R23D]: 5.42.
Same read-out and setting: the same measure for AIQGISEKEKAEIEAKEACDWLEA [R23E]: 5.36; for AIQGISEKEKAEIEAKEACDWLQA [R23Q]: 5.25; for AIQGISEKEKAEIEAKEACDWLIA [R23I]: 4.68.
On to AIQGISEKEKAEIEAKEACDWLCA [R23C], for which the protein stability index was determined as 4.73.
On the same count and under the same terms, the same measure for AIQGISEKEKAEIEAKEACDWLNA [R23N]: 5.1.
Still for that read-out and setting: the value for AIQGISEKEKAEIEAKEACDWLMA [R23M] was 4.45; that for AIQGISEKEKAEIEAKEACDWLYA [R23Y] was 3.8.

In another series the parent is B2. The series is described as above. Conditions: c terminus: a fixed tail appended.
With RVCPLARVTSLANLISPVRNGAVR [R3C], the protein stability index stood at 1.72.
For RVAPLARVTSLANLISPVRNGAVR [R3A], the protein stability index is 3.02.
For the variant RVVPLARVTSLANLISPVRNGAVR [R3V], the protein stability index is 2.6.
Turning to RVPPLARVTSLANLISPVRNGAVR [R3P], the protein stability index was found to be 3.49.
The same measure, in the same setting: the value for RVGPLARVTSLANLISPVRNGAVR [R3G] was 3.1.
For RVIPLARVTSLANLISPVRNGAVR [R3I], the protein stability index came to 2.22.
On the same count and under the same terms, the same measure for RVYPLARVTSLANLISPVRNGAVR [R3Y]: 2.55.
The same measure, in the same setting: the value for RVQPLARVTSLANLISPVRNGAVR [R3Q] was 3.33; that for RVMPLARVTSLANLISPVRNGAVR [R3M] was 2.46.
Still for that read-out and setting: the same measure for RVFPLARVTSLANLISPVRNGAVR [R3F]: 2.69.
RVSPLARVTSLANLISPVRNGAVR [R3S]: the protein stability index was 3.03.
On the same count and under the same terms, the value for RVKPLARVTSLANLISPVRNGAVR [R3K] was 2.81.
Same read-out and setting: the value for RVNPLARVTSLANLISPVRNGAVR [R3N] was 2.36; that for RVWPLARVTSLANLISPVRNGAVR [R3W] was 1.91.
With RVDPLARVTSLANLISPVRNGAVR [R3D], the protein stability index came to 3.03.
Same read-out and setting: the same measure for RVTPLARVTSLANLISPVRNGAVR [R3T]: 2.99; for RVHPLARVTSLANLISPVRNGAVR [R3H]: 2.67; for RVLPLARVTSLANLISPVRNGAVR [R3L]: 2.34.
Turning to RVEPLARVTSLANLISPVRNGAVR [R3E], the protein stability index is 2.59.
The same measure, in the same setting: the same measure for RGRPLARVTSLANLISPVRNGAVR [V2G]: 3.08; for RLRPLARVTSLANLISPVRNGAVR [V2L]: 2.29.
Still for that read-out and setting: the same measure for RNRPLARVTSLANLISPVRNGAVR [V2N]: 2.79.
Same read-out and setting: the same measure for RKRPLARVTSLANLISPVRNGAVR [V2K]: 3.65.
Regarding RWRPLARVTSLANLISPVRNGAVR [V2W], the protein stability index stood at 2.67.
Same read-out and setting: the same measure for RMRPLARVTSLANLISPVRNGAVR [V2M]: 3.04; for RERPLARVTSLANLISPVRNGAVR [V2E]: 3.69; for RARPLARVTSLANLISPVRNGAVR [V2A]: 3.
On the same count and under the same terms, the same measure for RSRPLARVTSLANLISPVRNGAVR [V2S]: 3.57.
Still for that read-out and setting: the same measure for RHRPLARVTSLANLISPVRNGAVR [V2H]: 2.91; for RCRPLARVTSLANLISPVRNGAVR [V2C]: 2.64.
As for RTRPLARVTSLANLISPVRNGAVR [V2T], the protein stability index was 3.14.
The same measure, in the same setting: the value for RFRPLARVTSLANLISPVRNGAVR [V2F] was 1.97; that for RDRPLARVTSLANLISPVRNGAVR [V2D] was 3.77; that for RPRPLARVTSLANLISPVRNGAVR [V2P] was 3.11.
With RQRPLARVTSLANLISPVRNGAVR [V2Q], the protein stability index was 3.59.
Same read-out and setting: the value for RYRPLARVTSLANLISPVRNGAVR [V2Y] was 2.62; that for RIRPLARVTSLANLISPVRNGAVR [V2I] was 2.25; that for RRRPLARVTSLANLISPVRNGAVR [V2R] was 2.92.
Same read-out and setting: the same measure for MVRPLARVTSLANLISPVRNGAVR [R1M]: 2.97; for HVRPLARVTSLANLISPVRNGAVR [R1H]: 2.87; for EVRPLARVTSLANLISPVRNGAVR [R1E]: 2.79.
Still for that read-out and setting: the same measure for QVRPLARVTSLANLISPVRNGAVR [R1Q]: 3.19; for IVRPLARVTSLANLISPVRNGAVR [R1I]: 2.81; for VVRPLARVTSLANLISPVRNGAVR [R1V]: 2.15.
As for PVRPLARVTSLANLISPVRNGAVR [R1P], the protein stability index is 3.11.
Regarding DVRPLARVTSLANLISPVRNGAVR [R1D], the protein stability index came out at 3.73.
On the same count and under the same terms, the value for NVRPLARVTSLANLISPVRNGAVR [R1N] was 3.42.
As to KVRPLARVTSLANLISPVRNGAVR [R1K], the protein stability index is 2.97.
On to TVRPLARVTSLANLISPVRNGAVR [R1T], for which the protein stability index is 3.25.
On the same count and under the same terms, the value for FVRPLARVTSLANLISPVRNGAVR [R1F] was 3.21; that for GVRPLARVTSLANLISPVRNGAVR [R1G] was 3.11.
As for YVRPLARVTSLANLISPVRNGAVR [R1Y], the protein stability index is 2.22.
For SVRPLARVTSLANLISPVRNGAVR [R1S], the protein stability index is 3.43.
On the same count and under the same terms, the same measure for LVRPLARVTSLANLISPVRNGAVR [R1L]: 2; for CVRPLARVTSLANLISPVRNGAVR [R1C]: 2.61; for WVRPLARVTSLANLISPVRNGAVR [R1W]: 2.36.
On the same count and under the same terms, the value for RVRILARVTSLANLISPVRNGAVR [P4I] was 1.4; that for RVRKLARVTSLANLISPVRNGAVR [P4K] was 2.87; that for RVRALARVTSLANLISPVRNGAVR [P4A] was 2.06.
As for RVRHLARVTSLANLISPVRNGAVR [P4H], the protein stability index amounted to 2.86.
In the case of RVRNLARVTSLANLISPVRNGAVR [P4N], the protein stability index is 2.9.
With RVRSLARVTSLANLISPVRNGAVR [P4S], the protein stability index came to 2.85.
Still for that read-out and setting: the same measure for RVRGLARVTSLANLISPVRNGAVR [P4G]: 2.38; for RVRELARVTSLANLISPVRNGAVR [P4E]: 2.
The same measure, in the same setting: the value for RVRTLARVTSLANLISPVRNGAVR [P4T] was 2.31; that for RVRFLARVTSLANLISPVRNGAVR [P4F] was 2.4.
Same read-out and setting: the same measure for RVRRLARVTSLANLISPVRNGAVR [P4R]: 1.97; for RVRCLARVTSLANLISPVRNGAVR [P4C]: 1.18; for RVRMLARVTSLANLISPVRNGAVR [P4M]: 1.43.
In the case of RVRDLARVTSLANLISPVRNGAVR [P4D], the protein stability index worked out at 3.06.
Take RVRQLARVTSLANLISPVRNGAVR [P4Q]: the protein stability index worked out at 2.51.
